Assays:
Experiment in all cases: two-hybrid; CRY1 as prey in pGADT7 (AD), HsF as bait in pGBKT7 (BD), co-transformed into yeast Y187; liquid beta-galactosidase assay with CPRG, Miller units; not detected (ND) if OD578 <0.01 after 3 h of color development
Details in all cases: partners not purified
HsFA6a^WT in pGBKT7 (BD) = target: T1, HsFA6a^WT in pGBKT7 (BD) (Arabidopsis thaliana, UniProt Q1PDN3 1-282)
T1 construct: source: yeast two-hybrid fusion (yeast Y187)
T1 sequence (looked up): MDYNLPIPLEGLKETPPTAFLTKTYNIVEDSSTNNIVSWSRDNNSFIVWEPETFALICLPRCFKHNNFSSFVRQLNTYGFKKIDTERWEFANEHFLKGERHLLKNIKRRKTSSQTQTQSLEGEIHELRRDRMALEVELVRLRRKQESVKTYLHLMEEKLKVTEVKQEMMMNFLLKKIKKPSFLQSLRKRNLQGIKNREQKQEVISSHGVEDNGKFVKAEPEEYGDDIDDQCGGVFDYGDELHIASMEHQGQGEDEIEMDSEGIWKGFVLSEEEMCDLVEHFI

HsFC1^WT in pGBKT7 (BD) = target: T2, HsFC1^WT in pGBKT7 (BD) (Arabidopsis thaliana, UniProt Q9LV52 1-330)
T2 construct: source: yeast two-hybrid fusion (yeast Y187)

[1] = target: T3, HsFA3^E178A in pGBKT7 (BD) (Arabidopsis thaliana, UniProt Q8GYY1 1-412, E178A)
T3 construct: source: yeast two-hybrid fusion (yeast Y187)

HsFA3^WT in pGBKT7 (BD) = target: T4, HsFA3^WT in pGBKT7 (BD) (Arabidopsis thaliana, UniProt Q8GYY1 1-412)
T4 construct: also called AtHsFA3; source: yeast two-hybrid fusion (yeast Y187)

HsFA1d^WT in pGBKT7 (BD) = target: T5, HsFA1d^WT in pGBKT7 (BD) (Arabidopsis thaliana, UniProt Q9LQM7 1-485)
T5 construct: source: yeast two-hybrid fusion (yeast Y187)

[2] = target: T6, HsFA3^K174A in pGBKT7 (BD) (Arabidopsis thaliana, UniProt Q8GYY1 1-412, K174A)
T6 construct: source: yeast two-hybrid fusion (yeast Y187)

[3] = target: T7, HsFA3^E173A in pGBKT7 (BD) (Arabidopsis thaliana, UniProt Q8GYY1 1-412, E173A)
T7 construct: source: yeast two-hybrid fusion (yeast Y187)

[4] = target: T8, HsFA3^E188A in pGBKT7 (BD) (Arabidopsis thaliana, UniProt Q8GYY1 1-412, E188A)
T8 construct: Not in the list of plasmids of the methods; source: yeast two-hybrid fusion (yeast Y187)

[5] = target: T9, HsFC1^R129E in pGBKT7 (BD) (Arabidopsis thaliana, UniProt Q9LV52 1-330, R129E)
T9 construct: source: yeast two-hybrid fusion (yeast Y187)

HsFA6b^WT in pGBKT7 (BD) = target: T10, HsFA6b^WT in pGBKT7 (BD) (Arabidopsis thaliana, UniProt Q9LUH8 1-406)
T10 construct: source: yeast two-hybrid fusion (yeast Y187)

[6] = target: T11, HsFA3^K177A in pGBKT7 (BD) (Arabidopsis thaliana, UniProt Q8GYY1 1-412, K177A)
T11 construct: source: yeast two-hybrid fusion (yeast Y187)

HsFA7a in pGBKT7 (BD) = target: T12, HsFA7a in pGBKT7 (BD) (Arabidopsis thaliana, UniProt Q9SV12 1-272)
T12 construct: also called HsFA7^WT; source: yeast two-hybrid fusion (yeast Y187)
T12 sequence (Q9SV12 whole entry, the tested form may be a part): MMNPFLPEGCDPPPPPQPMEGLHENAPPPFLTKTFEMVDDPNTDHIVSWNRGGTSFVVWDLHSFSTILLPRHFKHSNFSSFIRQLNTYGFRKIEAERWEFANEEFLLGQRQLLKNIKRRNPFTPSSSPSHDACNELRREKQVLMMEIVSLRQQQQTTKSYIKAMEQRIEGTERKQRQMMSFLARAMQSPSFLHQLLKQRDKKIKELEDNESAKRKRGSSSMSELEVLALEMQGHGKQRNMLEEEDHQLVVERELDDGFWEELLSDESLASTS

T4 sequence (Q8GYY1 whole entry, the tested form may be a part): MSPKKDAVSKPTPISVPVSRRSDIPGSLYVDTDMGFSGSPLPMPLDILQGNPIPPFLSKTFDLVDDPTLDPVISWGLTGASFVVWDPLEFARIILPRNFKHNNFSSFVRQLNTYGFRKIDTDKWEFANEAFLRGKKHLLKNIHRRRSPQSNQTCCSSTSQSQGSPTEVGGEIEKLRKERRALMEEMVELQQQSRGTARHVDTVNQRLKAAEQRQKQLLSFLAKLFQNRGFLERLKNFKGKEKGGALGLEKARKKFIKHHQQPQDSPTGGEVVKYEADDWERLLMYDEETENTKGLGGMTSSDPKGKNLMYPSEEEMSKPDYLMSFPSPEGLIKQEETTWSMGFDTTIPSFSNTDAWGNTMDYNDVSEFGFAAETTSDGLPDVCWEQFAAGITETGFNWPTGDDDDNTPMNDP
T7 sequence (Q8GYY1 whole entry E173A, the tested form may be a part): as the sequence (Q8GYY1 whole entry, the tested form may be a part) above, with E173A counted along it
T5 sequence (Q9LQM7 whole entry, the tested form may be a part): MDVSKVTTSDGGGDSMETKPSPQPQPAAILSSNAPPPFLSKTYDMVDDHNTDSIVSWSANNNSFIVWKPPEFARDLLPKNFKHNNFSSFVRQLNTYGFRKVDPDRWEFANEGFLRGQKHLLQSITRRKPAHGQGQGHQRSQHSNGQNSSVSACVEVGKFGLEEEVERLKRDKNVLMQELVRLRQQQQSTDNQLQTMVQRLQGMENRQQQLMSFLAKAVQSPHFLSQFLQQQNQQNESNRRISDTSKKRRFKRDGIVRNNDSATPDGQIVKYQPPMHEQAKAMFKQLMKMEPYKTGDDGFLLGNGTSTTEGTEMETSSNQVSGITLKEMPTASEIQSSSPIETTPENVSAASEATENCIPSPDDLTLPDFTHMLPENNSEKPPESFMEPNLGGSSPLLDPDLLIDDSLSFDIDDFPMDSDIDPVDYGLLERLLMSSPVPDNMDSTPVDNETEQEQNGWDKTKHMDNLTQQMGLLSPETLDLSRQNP
T2 sequence (Q9LV52 whole entry, the tested form may be a part): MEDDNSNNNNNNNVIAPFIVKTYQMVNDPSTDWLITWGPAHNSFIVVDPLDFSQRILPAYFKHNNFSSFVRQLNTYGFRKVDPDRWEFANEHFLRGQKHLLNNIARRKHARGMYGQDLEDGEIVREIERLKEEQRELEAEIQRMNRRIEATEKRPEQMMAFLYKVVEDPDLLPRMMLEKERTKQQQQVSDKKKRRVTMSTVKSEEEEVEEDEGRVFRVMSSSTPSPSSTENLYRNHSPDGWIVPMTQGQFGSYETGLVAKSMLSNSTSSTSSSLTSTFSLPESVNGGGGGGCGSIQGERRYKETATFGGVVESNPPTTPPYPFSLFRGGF
T9 sequence (Q9LV52 whole entry R129E, the tested form may be a part): as the sequence (Q9LV52 whole entry, the tested form may be a part) above, with R129E counted along it
T11 sequence (Q8GYY1 whole entry K177A, the tested form may be a part): as the sequence (Q8GYY1 whole entry, the tested form may be a part) above, with K177A counted along it
T10 sequence (Q9LUH8 whole entry, the tested form may be a part): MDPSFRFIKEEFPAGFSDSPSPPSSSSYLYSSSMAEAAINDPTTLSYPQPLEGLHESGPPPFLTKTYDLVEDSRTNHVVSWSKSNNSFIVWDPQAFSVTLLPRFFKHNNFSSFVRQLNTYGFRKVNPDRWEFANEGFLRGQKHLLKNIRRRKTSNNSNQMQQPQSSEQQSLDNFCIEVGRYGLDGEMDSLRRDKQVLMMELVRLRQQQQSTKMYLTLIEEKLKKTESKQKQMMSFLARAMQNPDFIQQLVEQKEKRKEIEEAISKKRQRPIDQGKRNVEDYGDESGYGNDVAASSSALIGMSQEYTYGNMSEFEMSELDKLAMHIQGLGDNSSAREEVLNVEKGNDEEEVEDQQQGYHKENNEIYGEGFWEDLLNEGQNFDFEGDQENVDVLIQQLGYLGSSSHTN
T3 sequence (Q8GYY1 whole entry E178A, the tested form may be a part): as the sequence (Q8GYY1 whole entry, the tested form may be a part) above, with E178A counted along it
T6 sequence (Q8GYY1 whole entry K174A, the tested form may be a part): as the sequence (Q8GYY1 whole entry, the tested form may be a part) above, with K174A counted along it
T8 sequence (Q8GYY1 whole entry E188A, the tested form may be a part): as the sequence (Q8GYY1 whole entry, the tested form may be a part) above, with E188A counted along it

B1: CRY1^(PHR WT) in pGADT7 (AD) (domain or fragment, Arabidopsis thaliana, UniProt Q43125 1-508, looked up)
chain: MSGSVSGCGSGGCSIVWFRRDLRVEDNPALAAAVRAGPVIALFVWAPEEEGHYHPGRVSRWWLKNSLAQLDSSLRSLGTCLITKRSTDSVASLLDVVKSTGASQIFFNHLYDPLSLVRDHRAKDVLTAQGIAVRSFNADLLYEPWEVTDELGRPFSMFAAFWERCLSMPYDPESPLLPPKKIISGDVSKCVADPLVFEDDSEKGSNALLARAWSPGWSNGDKALTTFINGPLLEYSKNRRKADSATTSFLSPHLHFGEVSVRKVFHLVRIKQVAWANEGNEAGEESVNLFLKSIGLREYSRYISFNHPYSHERPLLGHLKFFPWAVDENYFKAWRQGRTGYPLVDAGMRELWATGWLHDRIRVVVSSFFVKVLQLPWRWGMKYFWDTLLDADLESDALGWQYITGTLPDSREFDRIDNPQFEGYKFDPNGEYVRRWLPELSRLPTDWIHHPWNAPESVLQAAGIELGSNYPLPIVGLDEAKARLHEALSQMWQLEAASRAAIENGSEE
notes: cryptochrome 1 (AtCRY1), Arabidopsis thaliana, PHR domain, residues 1-508; also called CRY1 PHR domain; source: yeast two-hybrid fusion (yeast Y187)
Q: For B1, which “beta-galactosidase activity (Miller units)” value (“beta-galactosidase activity” for short) (HsFA6a^WT in pGBKT7 (BD)) is on record?
A: Its value is under 0.5 Miller units.

Q: And the “beta-galactosidase activity” value (HsFC1^WT in pGBKT7 (BD))?
A: The value was under 0.5 Miller units.

Q: And the “fold change of Miller units relative to WT” value [1]?
A: The value was 2 fold.

Q: What about the “beta-galactosidase activity” value (HsFA3^WT in pGBKT7 (BD)) of the same binder?
A: Its value is 250 Miller units.

Q: What about the “beta-galactosidase activity” value (HsFA1d^WT in pGBKT7 (BD)) of the same binder?
A: The value was 7 Miller units.

Q: And the “decrease of Y2H interaction relative to WT” value [2]?
A: Its value is 64%.

Q: And the “decrease of Y2H interaction relative to WT” value [3]?
A: Its value is 29%.

Q: And the “decrease of Y2H interaction relative to WT” value [4]?
A: The value was 61%.

Q: What about the “fold increase of Y2H interaction relative to WT” value [5] of the same binder?
A: Its value is about 10 fold.

Q: And the “beta-galactosidase activity” value (HsFA6b^WT in pGBKT7 (BD))?
A: Its value is 45 Miller units.

Q: What about the “decrease of Y2H interaction relative to WT” value [6] of the same binder?
A: Its value is 62%.

Q: And the “beta-galactosidase activity” value (HsFA7a in pGBKT7 (BD))?
A: The value was 25 Miller units.

B2: CRY1^(PHR K332A) in pGADT7 (AD) (domain or fragment, Arabidopsis thaliana, UniProt Q43125 1-508, looked up)
chain: MSGSVSGCGSGGCSIVWFRRDLRVEDNPALAAAVRAGPVIALFVWAPEEEGHYHPGRVSRWWLKNSLAQLDSSLRSLGTCLITKRSTDSVASLLDVVKSTGASQIFFNHLYDPLSLVRDHRAKDVLTAQGIAVRSFNADLLYEPWEVTDELGRPFSMFAAFWERCLSMPYDPESPLLPPKKIISGDVSKCVADPLVFEDDSEKGSNALLARAWSPGWSNGDKALTTFINGPLLEYSKNRRKADSATTSFLSPHLHFGEVSVRKVFHLVRIKQVAWANEGNEAGEESVNLFLKSIGLREYSRYISFNHPYSHERPLLGHLKFFPWAVDENYFAAWRQGRTGYPLVDAGMRELWATGWLHDRIRVVVSSFFVKVLQLPWRWGMKYFWDTLLDADLESDALGWQYITGTLPDSREFDRIDNPQFEGYKFDPNGEYVRRWLPELSRLPTDWIHHPWNAPESVLQAAGIELGSNYPLPIVGLDEAKARLHEALSQMWQLEAASRAAIENGSEE
notes: cryptochrome 1 (AtCRY1), Arabidopsis thaliana, PHR domain, residues 1-508; source: yeast two-hybrid fusion (yeast Y187)
Q: For B2, which “decrease of Y2H interaction relative to WT” value (HsFA3^WT in pGBKT7 (BD)) is on record?
A: Its value is 56%.

B3: CRY1^(PHR R211A) in pGADT7 (AD) (domain or fragment, Arabidopsis thaliana, UniProt Q43125 1-508, looked up)
chain: MSGSVSGCGSGGCSIVWFRRDLRVEDNPALAAAVRAGPVIALFVWAPEEEGHYHPGRVSRWWLKNSLAQLDSSLRSLGTCLITKRSTDSVASLLDVVKSTGASQIFFNHLYDPLSLVRDHRAKDVLTAQGIAVRSFNADLLYEPWEVTDELGRPFSMFAAFWERCLSMPYDPESPLLPPKKIISGDVSKCVADPLVFEDDSEKGSNALLAAAWSPGWSNGDKALTTFINGPLLEYSKNRRKADSATTSFLSPHLHFGEVSVRKVFHLVRIKQVAWANEGNEAGEESVNLFLKSIGLREYSRYISFNHPYSHERPLLGHLKFFPWAVDENYFKAWRQGRTGYPLVDAGMRELWATGWLHDRIRVVVSSFFVKVLQLPWRWGMKYFWDTLLDADLESDALGWQYITGTLPDSREFDRIDNPQFEGYKFDPNGEYVRRWLPELSRLPTDWIHHPWNAPESVLQAAGIELGSNYPLPIVGLDEAKARLHEALSQMWQLEAASRAAIENGSEE
notes: cryptochrome 1 (AtCRY1), Arabidopsis thaliana, PHR domain, residues 1-508; also called CRY1^R211A; source: yeast two-hybrid fusion (yeast Y187)
Q: Which “increase of Miller units relative to WT” value (HsFA3^WT in pGBKT7 (BD)) does the source give for B3 here?
A: The value was 27%.

B4: CRY1^(PHR R435A) in pGADT7 (AD) (domain or fragment, Arabidopsis thaliana, UniProt Q43125 1-508, looked up)
chain: MSGSVSGCGSGGCSIVWFRRDLRVEDNPALAAAVRAGPVIALFVWAPEEEGHYHPGRVSRWWLKNSLAQLDSSLRSLGTCLITKRSTDSVASLLDVVKSTGASQIFFNHLYDPLSLVRDHRAKDVLTAQGIAVRSFNADLLYEPWEVTDELGRPFSMFAAFWERCLSMPYDPESPLLPPKKIISGDVSKCVADPLVFEDDSEKGSNALLARAWSPGWSNGDKALTTFINGPLLEYSKNRRKADSATTSFLSPHLHFGEVSVRKVFHLVRIKQVAWANEGNEAGEESVNLFLKSIGLREYSRYISFNHPYSHERPLLGHLKFFPWAVDENYFKAWRQGRTGYPLVDAGMRELWATGWLHDRIRVVVSSFFVKVLQLPWRWGMKYFWDTLLDADLESDALGWQYITGTLPDSREFDRIDNPQFEGYKFDPNGEYVRAWLPELSRLPTDWIHHPWNAPESVLQAAGIELGSNYPLPIVGLDEAKARLHEALSQMWQLEAASRAAIENGSEE
notes: cryptochrome 1 (AtCRY1), Arabidopsis thaliana, PHR domain, residues 1-508; also called CRY1^R435A; source: yeast two-hybrid fusion (yeast Y187)
Q: For B4, which “decrease of Y2H interaction relative to WT” value (HsFA3^WT in pGBKT7 (BD)) is on record?
A: Its value is 12%.

B5: CRY1^(PHR R335A) in pGADT7 (AD) (domain or fragment, Arabidopsis thaliana, UniProt Q43125 1-508, looked up)
chain: MSGSVSGCGSGGCSIVWFRRDLRVEDNPALAAAVRAGPVIALFVWAPEEEGHYHPGRVSRWWLKNSLAQLDSSLRSLGTCLITKRSTDSVASLLDVVKSTGASQIFFNHLYDPLSLVRDHRAKDVLTAQGIAVRSFNADLLYEPWEVTDELGRPFSMFAAFWERCLSMPYDPESPLLPPKKIISGDVSKCVADPLVFEDDSEKGSNALLARAWSPGWSNGDKALTTFINGPLLEYSKNRRKADSATTSFLSPHLHFGEVSVRKVFHLVRIKQVAWANEGNEAGEESVNLFLKSIGLREYSRYISFNHPYSHERPLLGHLKFFPWAVDENYFKAWAQGRTGYPLVDAGMRELWATGWLHDRIRVVVSSFFVKVLQLPWRWGMKYFWDTLLDADLESDALGWQYITGTLPDSREFDRIDNPQFEGYKFDPNGEYVRRWLPELSRLPTDWIHHPWNAPESVLQAAGIELGSNYPLPIVGLDEAKARLHEALSQMWQLEAASRAAIENGSEE
notes: as for B2
Q: How did the “decrease of Y2H interaction relative to WT” value (HsFA3^WT in pGBKT7 (BD)) turn out when B5 was run?
A: Its value is 41%.

B6: CRY1^(PHR W352A) in pGADT7 (AD) (domain or fragment, Arabidopsis thaliana, UniProt Q43125 1-508, looked up)
chain: MSGSVSGCGSGGCSIVWFRRDLRVEDNPALAAAVRAGPVIALFVWAPEEEGHYHPGRVSRWWLKNSLAQLDSSLRSLGTCLITKRSTDSVASLLDVVKSTGASQIFFNHLYDPLSLVRDHRAKDVLTAQGIAVRSFNADLLYEPWEVTDELGRPFSMFAAFWERCLSMPYDPESPLLPPKKIISGDVSKCVADPLVFEDDSEKGSNALLARAWSPGWSNGDKALTTFINGPLLEYSKNRRKADSATTSFLSPHLHFGEVSVRKVFHLVRIKQVAWANEGNEAGEESVNLFLKSIGLREYSRYISFNHPYSHERPLLGHLKFFPWAVDENYFKAWRQGRTGYPLVDAGMRELAATGWLHDRIRVVVSSFFVKVLQLPWRWGMKYFWDTLLDADLESDALGWQYITGTLPDSREFDRIDNPQFEGYKFDPNGEYVRRWLPELSRLPTDWIHHPWNAPESVLQAAGIELGSNYPLPIVGLDEAKARLHEALSQMWQLEAASRAAIENGSEE
notes: cryptochrome 1 (AtCRY1), Arabidopsis thaliana, PHR domain, residues 1-508; also called CRY1^W352A; source: yeast two-hybrid fusion (yeast Y187)
Q: How did the “decrease of Y2H interaction relative to WT” value (HsFA3^WT in pGBKT7 (BD)) turn out when B6 was run?
A: The value was 51%.
